*1 amine or outer side, *2 acyl side, *3 side chain or, on linkers, in order; H or OH if unused. Where no end group is shown, it is not given here. Side-chain parts run from the residue outwards. [ ]: non-standard residue; d: D form. The star is where a group is joined. C20 diacid = O=C(O)CCCCCCCCCCCCCCCCCCC(=O)*; C18 diacid = O=C(O)CCCCCCCCCCCCCCCCC(=O)*; γGlu = O=C(O)[C@H](CCC(=O)[*:2])N[*:1]; Trx = NC[C@H]1CC[C@H](C(=O)O)CC1; Nle = CCCC[C@H](N)C(=O)O; AEEA = NCCOCCOCC(=O)O; Aib = CC(C)(N)C(=O)O

Test in all cases: cell-based or functional assay
Assay [1] addresses human glucagon receptor (human, UniProt P47871 26-477).
The target in assay [2] is human GLP-1 receptor (human, UniProt P43220 24-463).
The target in assay [3] is T1, human GIP receptor (human, UniProt P48546 22-466).
T1 sequence (looked up): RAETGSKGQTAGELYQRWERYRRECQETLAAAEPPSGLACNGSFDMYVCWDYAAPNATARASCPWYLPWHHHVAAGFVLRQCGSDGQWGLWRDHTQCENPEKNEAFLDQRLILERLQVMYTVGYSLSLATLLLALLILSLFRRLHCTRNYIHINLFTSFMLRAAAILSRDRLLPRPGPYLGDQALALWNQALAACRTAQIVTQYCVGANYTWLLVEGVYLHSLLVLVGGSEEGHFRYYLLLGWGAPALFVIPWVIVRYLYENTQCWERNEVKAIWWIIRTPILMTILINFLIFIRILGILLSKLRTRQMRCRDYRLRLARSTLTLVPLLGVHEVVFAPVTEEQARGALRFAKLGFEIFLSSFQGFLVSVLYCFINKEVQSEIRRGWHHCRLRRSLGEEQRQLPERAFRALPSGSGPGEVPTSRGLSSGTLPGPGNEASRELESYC

human glucagon receptor, sequence (P47871 26-477): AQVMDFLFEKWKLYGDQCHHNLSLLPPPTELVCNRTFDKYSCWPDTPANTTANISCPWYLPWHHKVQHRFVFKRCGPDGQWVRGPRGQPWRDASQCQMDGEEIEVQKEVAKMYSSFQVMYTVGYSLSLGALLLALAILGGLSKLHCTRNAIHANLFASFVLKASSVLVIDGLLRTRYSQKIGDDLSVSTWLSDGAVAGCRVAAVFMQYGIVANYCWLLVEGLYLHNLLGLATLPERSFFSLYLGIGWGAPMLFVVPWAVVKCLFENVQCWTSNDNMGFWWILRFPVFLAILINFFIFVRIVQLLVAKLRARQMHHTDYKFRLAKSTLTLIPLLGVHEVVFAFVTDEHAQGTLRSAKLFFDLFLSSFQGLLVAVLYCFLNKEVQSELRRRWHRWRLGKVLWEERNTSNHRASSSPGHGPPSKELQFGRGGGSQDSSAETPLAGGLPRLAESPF

In turn, “hGIP(1-42) (from UniProt P09681 52-93) (ligand)” had an EC50, hGcg-R CRE Luc, 0.2% HSA in assay [1] greater than 100 nM. Further, the EC50, hGLP-1-R CRE Luc, 0.2% HSA in assay [2] is greater than 100 nM.

B1: N{Epsilon-24}-[(4S)-4-carboxy-4-[[(4S)-4-carboxy-4-[[(4S)-4-carboxy-4-(17-carboxyheptadecanoylamino)butanoyl]amino]butanoyl]amino]butanoyl]-[Aib2,Nle14,Lys24,Gl … (peptide)
peptide: Y[Aib]EGTFISDYSIA[Nle]DKIHQQDFVK([γGlu-γGlu-γGlu-C18 diacid])WLLAQKGKEDDWKHNITQ
As to B1, the “EC50, hGcg-R CRE Luc, 0.2% HSA” value in assay [1] was greater than 100 nM. In assay [2], the “EC50, hGLP-1-R CRE Luc, 0.2% HSA” value is greater than 100 nM. For the same molecule, the “EC50, hGIP-R CRE Luc, 0.2% HSA” value in assay [3] worked out at 5.9 pM.

B2: N{Epsilon-24}-[(4S)-4-carboxy-4-[[(4S)-4-carboxy-4-[[(4S)-4-carboxy-4-(17-carboxyheptadecanoylamino)butanoyl]amino]butanoyl]amino]butanoyl]-[Aib2,Nle14,Lys24,Gl … (peptide)
peptide: Y[Aib]EGTFISDYSIA[Nle]DKIHQQDFVK([γGlu-γGlu-γGlu-C18 diacid])WLLAQKGKEEDWKHNITQ
B2: the “EC50, hGcg-R CRE Luc, 0.2% HSA” value in assay [1] is greater than 100 nM. In addition, the “EC50, hGLP-1-R CRE Luc, 0.2% HSA” value in assay [2] was greater than 100 nM. In addition, the “EC50, hGIP-R CRE Luc, 0.2% HSA” value in assay [3] came out at 9 pM.

B3: N{Epsilon-24}-[(4S)-4-carboxy-4-[[(4S)-4-carboxy-4-[[(4S)-4-carboxy-4-(17-carboxyheptadecanoylamino)butanoyl]amino]butanoyl]amino]butanoyl]-[Aib2,Nle14,Arg18,Ly … (peptide)
peptide: Y[Aib]EGTFISDYSIA[Nle]DKIRQQDFVK([γGlu-γGlu-γGlu-C18 diacid])WLLAQKGKEEDWKHNITQ
Regarding B3, the “EC50, hGcg-R CRE Luc, 0.2% HSA” value in assay [1] is greater than 100 nM. Also, in assay [2], the “EC50, hGLP-1-R CRE Luc, 0.2% HSA” value was greater than 100 nM. The “EC50, hGIP-R CRE Luc, 0.2% HSA” value in assay [3] is 4.47 pM.

B4: N{Epsilon-24}-[2-[2-[2-[[2-[2-[2-[[(4S)-4-carboxy-4-(17-carboxyheptadecanoylamino)butanoyl]amino]ethoxy]ethoxy]acetyl]amino]ethoxy]ethoxy]acetyl]-[Aib2,Nle14,Ly … (peptide)
peptide: Y[Aib]EGTFISDYSIA[Nle]DKIHQQDFVK([AEEA-AEEA-γGlu-C18 diacid])WLLAQKGKEEDWKHNITQ
For B4, the “EC50, hGcg-R CRE Luc, 0.2% HSA” value in assay [1] was greater than 100 nM. Moreover, in assay [2], the “EC50, hGLP-1-R CRE Luc, 0.2% HSA” value was greater than 100 nM. In addition, the “EC50, hGIP-R CRE Luc, 0.2% HSA” value in assay [3] amounted to 5.45 pM.

B5: N{Epsilon-24}-[2-[2-[2-[[2-[2-[2-[[(4S)-4-carboxy-4-(17-carboxyheptadecanoylamino)butanoyl]amino]ethoxy]ethoxy]acetyl]amino]ethoxy]ethoxy]acetyl]-[Aib2,Nle14,Ly … (peptide)
peptide: Y[Aib]EGTFISDYSIA[Nle]DKIHQQDFVK([AEEA-AEEA-γGlu-C18 diacid])WLLAQKGKEDDWKHNITQ
Consider B5, for which the “EC50, hGcg-R CRE Luc, 0.2% HSA” value in assay [1] was greater than 100 nM. In addition, the “EC50, hGLP-1-R CRE Luc, 0.2% HSA” value in assay [2] is greater than 100 nM. In addition, the “EC50, hGIP-R CRE Luc, 0.2% HSA” value in assay [3] is 5.97 pM.

B6: N{Epsilon-24}-[(4S)-4-carboxy-4-[[(4S)-4-carboxy-4-[[(4S)-4-carboxy-4-(17-carboxyheptadecanoylamino)butanoyl]amino]butanoyl]amino]butanoyl]-[Aib2,Nle14,Lys24,Gl … (peptide)
peptide: Y[Aib]EGTFISDYSIA[Nle]DKIHQQDFVK([γGlu-γGlu-γGlu-C18 diacid])WLLAQKGKENDWKHNITQ
Regarding B6, the “EC50, hGcg-R CRE Luc, 1% HSA (*)” value in assay [1] is greater than 100 nM. Besides, the “EC50, hGLP-1-R CRE Luc, 1% HSA (*)” value in assay [2] is greater than 100 nM. Besides, the “EC50, hGIP-R CRE Luc, 0.2% HSA” value in assay [3] came to 21.3 pM.

B7: N{1}-acetyl,N{Epsilon-24}-[(4S)-4-carboxy-4-[[(4S)-4-carboxy-4-[[(4S)-4-carboxy-4-[[(4S)-4-carboxy-4-[[4-[(19-carboxynonadecanoylamino)methyl]cyclohexanecarbony … (peptide)
peptide: Ac-[dY][Aib]EGTFISDYSIA[Nle]DKIRQQDFVK([γGlu-γGlu-γGlu-γGlu-Trx-C20 diacid])WLLAQKP-NH2
For B7, in assay [1], the “EC50, hGcg-R CRE Luc, 1% HSA (*)” value was greater than 100 nM. Besides, the “EC50, hGLP-1-R CRE Luc, 1% HSA (*)” value in assay [2] was greater than 10 nM. For the same molecule, in assay [3], the “EC50, hGIP-R CRE Luc, 0.2% HSA” value stood at 26.1 pM.

B8: N{Epsilon-24}-[(4S)-4-carboxy-4-[[(4S)-4-carboxy-4-[[(4S)-4-carboxy-4-(17-carboxyheptadecanoylamino)butanoyl]amino]butanoyl]amino]butanoyl]-[Aib2,Nle14,Arg18,Ly … (peptide)
peptide: Y[Aib]EGTFISDYSIA[Nle]DKIRQQDFVK([γGlu-γGlu-γGlu-C18 diacid])WLLAQKGKENDWKHNITQ
With B8, in assay [1], the “EC50, hGcg-R CRE Luc, 1% HSA (*)” value is greater than 100 nM. The “EC50, hGLP-1-R CRE Luc, 1% HSA (*)” value in assay [2] is greater than 100 nM. For the same molecule, the “EC50, hGIP-R CRE Luc, 0.2% HSA” value in assay [3] came to 20.1 pM.

B9: N{Epsilon-24}-[(4S)-4-carboxy-4-[[(4S)-4-carboxy-4-[[(4S)-4-carboxy-4-(17-carboxyheptadecanoylamino)butanoyl]amino]butanoyl]amino]butanoyl]-[Aib2,Nle14,Lys24]-h … (peptide)
peptide: Y[Aib]EGTFISDYSIA[Nle]DKIHQQDFVK([γGlu-γGlu-γGlu-C18 diacid])WLLAQKG
As to B9, the “EC50, hGcg-R CRE Luc, 1% HSA (*)” value in assay [1] was greater than 100 nM. For the same molecule, the “EC50, hGLP-1-R CRE Luc, 1% HSA (*)” value in assay [2] was greater than 100 nM. Also, the “EC50, hGIP-R CRE Luc, 0.2% HSA” value in assay [3] came out at 49.9 pM.

B10: N{Epsilon-24}-[2-[2-[2-[[2-[2-[2-[[(4S)-4-carboxy-4-(17-carboxyheptadecanoylamino)butanoyl]amino]ethoxy]ethoxy]acetyl]amino]ethoxy]ethoxy]acetyl]-[Aib2,Nle14,Ar … (peptide)
peptide: Y[Aib]EGTFISDYSIA[Nle]DKIRQQDFVK([AEEA-AEEA-γGlu-C18 diacid])WLLAQKGKEEDWKHNITQ
On to B10, for which, in assay [1], the “EC50, hGcg-R CRE Luc, 0.2% HSA” value was greater than 100 nM. In addition, the “EC50, hGLP-1-R CRE Luc, 0.2% HSA” value in assay [2] is greater than 100 nM. The “EC50, hGIP-R CRE Luc, 0.2% HSA” value in assay [3] worked out at 4.12 pM.

B11: N{Epsilon-24}-[2-[2-[2-[[2-[2-[2-[[(4S)-4-carboxy-4-(17-carboxyheptadecanoylamino)butanoyl]amino]ethoxy]ethoxy]acetyl]amino]ethoxy]ethoxy]acetyl]-[Aib2,Leu14,Ly … (peptide)
peptide: Y[Aib]EGTFISDYSIALDKIHQQDFVK([AEEA-AEEA-γGlu-C18 diacid])WLLAQKGKKNDWKHNITQ
B11: the “EC50, hGcg-R CRE Luc, 1% HSA (*)” value in assay [1] was greater than 100 nM. Moreover, in assay [2], the “EC50, hGLP-1-R CRE Luc, 1% HSA (*)” value is greater than 100 nM. In assay [3], the “EC50, hGIP-R CRE Luc, 0.2% HSA” value is 56 pM.

The values above are taken from patent US20220000982A1 (Novo Nordisk, published 2022).
